The record followed here is patent publication US20230272104A1 (LEGEND BIOTECH IRELAND, published 2023).

Usually EC50 stands for the concentration needed to bring the measured effect to its halfway point. The low end stands for greater potency, the high end for weaker potency.

The target of assay [1] is T1, human CD20 (membrane spanning 4-domains A1, MS4A1) on cells (human, UniProt P11836 1-297).
T1 construct: whole, on cells; Target cells used: Raji, K562-CD20, CHO-CD20, Daudi, RPMI-8226 (very low CD20); also called CD20 receptor; CD20 antigen
T1 sequence (looked up): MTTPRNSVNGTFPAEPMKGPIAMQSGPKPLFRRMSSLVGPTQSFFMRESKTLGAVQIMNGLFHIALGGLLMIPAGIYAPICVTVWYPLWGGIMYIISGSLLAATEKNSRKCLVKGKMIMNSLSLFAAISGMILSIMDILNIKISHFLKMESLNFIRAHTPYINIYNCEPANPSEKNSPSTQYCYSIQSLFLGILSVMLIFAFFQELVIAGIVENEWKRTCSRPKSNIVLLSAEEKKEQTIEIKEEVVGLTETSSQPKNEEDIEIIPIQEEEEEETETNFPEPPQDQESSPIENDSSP
Briefly: flow cytometry, mAb titrated on Raji cells, PE anti-human IgG1 Fc detection. The text has this:
(§1) Each of three exemplary of anti-CD20 VHH sequences (clone ID: VHH-273, VHH-466 and VHH-496) with human IgG1 Fc fragment sequence (SEQ ID NO: 159) were cloned into a mammalian expression vector—pcDNA3.4, to facilitate the recombinant protein expression. The DNA codons were further optimized for optimal expression in mammalian host cell—Expi293F. The antibodies were harvested from the supernatant of cell culture, one-step purified by MabSelect SuRe LX and sterilized via a 0.2 μm filter. The purified antibody concentrations were determined by A280 and reached 2-6 mg/mL with ˜90% purity. Anti-CD20 scFv-huIgG1Fc mAb with amino acid sequence of Rituximab (C2B8) scFv shown in SEQ ID NO: 158 and anti-CD20 Fab-huIgG1Fc mAb with amino acid sequences of Leul6 VH-CH1 and VL-CL shown in SEQ ID NO: 163 and SEQ ID NO: 164 were used as positive controls for the cell surface binding assay. CD20 positive cell lines—Raji, K562-CD20 and negative cell line—K562 were re-suspended in complete culture medium, cells concentration was diluted to 1×10⁶ cells/mL and the staining was performed in 2×10⁵ cells per well. The mAbs were serially diluted from maximal concentration of 2000 nM (3-fold reduction, 12 pts) and added according to the experimental plan and protocol. The mAbs and cells were co-incubated for 1 hour at 4° C. Then, the cells were washed with 2(X) μL of DPBS+0.5% FBS and spun at 300 g for 5 mins, 4° C. The cells were stained with the detection antibody—PE-conjugated mouse anti-human IgG1 Fc (BioLegend, Cat. #409304, 1:100) for 40 mins at 4° C. The cells were then washed again and re-suspended with 200 μL of DPBS+0.5% FBS for flow cytometric analysis on a NovoCyte Flow Cytometer (ACEA Biosciences). The FACS data was analyzed by Novoexpress software, and the MFI (median fluorescent intensity) was analyzed by GraphPad PRISM version 6.0.

The target in assay [2] is T1, human CD20 (membrane spanning 4-domains …). Briefly: flow cytometry, mAb titrated on K562-CD20 cells, PE anti-human IgG1 Fc detection.
Source text: as §1, with “The mAbs and cells were co-incubated for 1 hour at 4° C. Then, the cells were washed with 2(X) μL of DPBS+0.5% FBS and spun at 300 g for 5 mins, 4° C. The cells were stained with the detection antibody—PE-conjugated mouse anti-human IgG1 Fc (BioLegend, Cat. #409304, 1:100) for 40 mins at 4° C. The cells were then washed again and re-suspended with 200 μL of DPBS+0.5% FBS for flow cytometric analysis on a NovoCyte Flow Cytometer (ACEA Biosciences).” left out
On the technique in general: A flow cytometer gives signals particle by particle.

B1: VHH-440-huIgG1Fc mAb (Fc fusion)
chain: QVHLMESGGGSVQAGGSLRLSCQASAYIRVFYLMGWFRQAPGKEREEVARVTADGFTNHAASVKGRFTISKDNAKNTLYLQMDSMKSEDTAVYYCAAGRTWNSGFEYWGQGTQVTVSS
notes: not shown: human IgG1 Fc by the name
As to B1, the EC50 came to 11.1 nM in assay [1] and 6.24 nM in assay [2].

B2: Anti-CD20 scFv-huIgG1Fc mAb (Fc fusion)
chain: QIVLSQSPAILSASPGEKVTMTCRASSSVSYIHWFQQKPGSSPKPWIYATSNLASGVPVRFSGSGSGTSYSLTISRVEAEDAATYYCQQWTSNPPTFGGGTKLEIKGGGGSGGGGSGGGGSQVQLQQPGAELVKPGASVKMSCKASGYTFTSYNMHWVKQTPGRGLEWIGAIYPGNGDTSYNQKFKGKATLTADKSSSTAYMQLSSLTSEDSAVYYCARSTYYGGDWYFNVWGAGTTVTVSA
notes: also called Rituximab (C2B8) scFv-huIgG1Fc; not shown: human IgG1 Fc by the name
B2: the EC50 in assay [1] was found to be 75.3 nM; in assay [2] it was 41.1 nM.

B3: Anti-CD20 Fab-huIgG1Fc mAb (antibody, V domains shown)
VH: EVQLQQSGAELVKPGASVKMSCKASGYTFTSYNMHWVKQTPGQGLEWIGAIYPGNGDTSYNQKFKGKATLTADKSSSTAYMQLSSLTSEDSADYYCARSNYYGSSYWFFDVWGAGTTVTVSS
VL: DIVLTQSPAILSASPGEKVTMTCRASSSVNYMDWYQKKPGSSPKPWIYATSNLASGVPARFSGSGSGTSYSLTISRVEAEDAATYYCQQWSFNPPTFGGGTKLEIKR
notes: also called Leul6 (Leu16) Fab-huIgG1Fc; not shown: human IgG1 Fc by the name
In the case of B3, in assay [1], the EC50 stood at 13.5 nM.
